Experimental findings from IntAct's records for PubMed 24794838 are described below.

The labels stand for the following.
B1: PIH1 domain-containing protein 1 (Mus musculus), Q9CQJ2 (parent)
chain: MADSTFLAPELSDTESMGEETVRFQELLLKASKELQQAQTARPDSTQIQPKPGFCVKTNSSEGKVFINICHSPSIPPPADVTEDELLQMLEEDQAGFRIPMSLGEPHAELDAKGQGCTAYDVAVNSNFYLRMQNSDFLRELVVTIAREGLEDKYGLQLNPEWRMLKYRSFLGSISQQNIRSQQRPRIQELGTLDASGSLGTCHGPERPHLNLWLEAPDLLLAEVDLPKLDGAQGLALEIGENRLVIGGPQQLYHLDATVPLRINSEASRAAFHRRRKQLMVSMPLLTASS

In this assay the parent is B1. To be noted: with telo2_mouse Telo2, Q9DC40.
Chain of telo2_mouse Telo2, Q9DC40 (Q9DC40 whole entry): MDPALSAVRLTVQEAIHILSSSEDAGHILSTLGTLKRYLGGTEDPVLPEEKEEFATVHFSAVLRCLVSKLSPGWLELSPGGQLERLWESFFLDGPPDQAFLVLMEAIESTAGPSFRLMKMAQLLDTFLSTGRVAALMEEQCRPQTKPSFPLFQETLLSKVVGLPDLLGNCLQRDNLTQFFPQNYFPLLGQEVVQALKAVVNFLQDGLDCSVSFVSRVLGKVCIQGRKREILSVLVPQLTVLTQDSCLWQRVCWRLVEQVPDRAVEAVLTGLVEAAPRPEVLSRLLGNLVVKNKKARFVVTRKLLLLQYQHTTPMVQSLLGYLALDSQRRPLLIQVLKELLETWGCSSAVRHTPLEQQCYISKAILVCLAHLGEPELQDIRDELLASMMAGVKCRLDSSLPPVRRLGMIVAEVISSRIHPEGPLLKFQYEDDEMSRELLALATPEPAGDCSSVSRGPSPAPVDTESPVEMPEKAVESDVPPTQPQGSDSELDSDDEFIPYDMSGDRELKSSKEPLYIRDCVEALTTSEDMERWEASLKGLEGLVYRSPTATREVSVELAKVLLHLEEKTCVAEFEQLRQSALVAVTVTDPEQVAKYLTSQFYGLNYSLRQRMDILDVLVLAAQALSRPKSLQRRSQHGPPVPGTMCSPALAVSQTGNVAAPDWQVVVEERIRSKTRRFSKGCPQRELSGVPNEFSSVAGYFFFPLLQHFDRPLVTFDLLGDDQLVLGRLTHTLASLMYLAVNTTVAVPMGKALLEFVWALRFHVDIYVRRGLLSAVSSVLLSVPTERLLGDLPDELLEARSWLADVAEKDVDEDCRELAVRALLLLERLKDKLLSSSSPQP
Turning to K57E, the “effect of a mutation on the interaction” value is “disrupting interaction strength”.
The value for K64E was “disrupting interaction strength”.
